Molecular target: Aβ1-40wt (human)
Experiment: SEC

stoichiometry N: 2
Substance: Aβ1-40wt (peptide)
